Measurements published in US20030166537A1, “Use of GDNF for treating corneal defects” (Biopharm Gesellschaft Zur Biotechnologischen Entwicklung …, priority 1999, published 2003).

Legend:
[1] = tested on: corneal ulcer; test: topical therapy of corneal ulcer in a human patient; format: in vivo; conditions: one patient
Description: […] Corneal ulcer accompanied by massive inflammation on the left. Epithelial defect of 3.8×3.0 mm in size, furthermore ulcus of corneal stroma in form of a punched-out defect comprising 80% of the thickness of the cornea. No pain sensation of the cornea and significant accompanying inflammation of the eye. The patient was treated with recombinant human (rh) GNDF (0.2 mg/ml) (25 μl/dose) in 2 hours intervals for 48 hours, then the doses were reduced to 20 μl 6 times per day. After healing of the epithelium the concentration was reduced to 0.1 mg/ml, and 20 μl doses were given 5 times per day. For adminstration, lyophilized recombinant human GDNF was diluted in sterile balanced salt solution (Alcon, Freiburg Germany).

[2] = tested on: corneal epithelial cells from the SV40 transformed cell line; test: in vitro wound healing assay (scratch wound), cell line; format: cell-based, human; conditions: 250 ng/ml; 18 h; control 20%±4.5
Description: For in vitro wound healing assays primary corneal epithelial cells and cells from the corneal epithelial cell line were seeded at a density of 5×10^5 onto 60 mm plastic dishes with 2 mm grid (Sarstedt, Numbrecht, Germany) and cultured for 2 days until subconfluency. For experiments with artemin primary cultured rabbit corneal epithelial cells were used. These cells had been isolated with Dispase (1,2 U/ml) and trypsin/EDTA. Rabbit cells had been cultured in medium 500 with additives (Cascade Biologies).
The cell layer was injured under the microscope by inducing several parallel scratches with a soft plastic cell scrubber (Falcon, Becton and Dickinson, Heidelberg, Germany). The tip of the scrubber was cut and measured about 1 mm and consequently the width of the scratch in the cell layer was also about 1 mm. Selected areas in the dishes were marked with a very fine marker pen and consecutive images were taken at different time points at 5×magnification under an inverted phase contrast microscope (Axiovert 25, Zeiss, Jena, Germany) equipped with a video camera. Following the experimental injury dishes were incubated in SHEM medium either containing no growth factors (control) or containing either GDNF (250 ng/ml) (recombinant human GDNF expressed in E. coli), NGF (250 ng/ml) (Boehringer Mannheim, Germany) or EGF ([…]). For experiments investigating artemin cells were cultured in medium 500 without additives and 250 ng artemin was added. For each condition four representative areas were evaluated within three dishes. The mean diameter of the scratch in each representative area was set as 100% at the beginning of the experiment. 18 hours later the mean diameter of the same scratch was calculated again and expressed in percent of the diameter at the beginning of the experiment.

[3] = tested on: primary rabbit corneal epithelial cells; test: single cell clonal growth assay (colony formation, clonal proliferation); format: cell-based; conditions: D6
Source text: In order to evaluate the effect of GDNF on corneal proliferation, recombinant human GDNF was used (R&D, Minneapolis, Minn., USA). For the evaluation of the effect on corneal epithelial proliferaton a single cell clonal growth model was utilized which allows to determine the effect of the given growth factor on both colony formation as well as clonal expansion (Kruse et al., 1991). New Zealand white rabbits were housed and treated according to the ARVO Resolution of Animals in Research and under observation of German Federal Laws and the laws of the State of Baden-Württemberg. Prior to sacrifice with an intravenous overdose of pentobarbital, they received an intramuscular injection of xylazine hydrochloride and ketamine hydrochloride. The details of the clonal growth assay are described in Kruse et al. (1991). 5000 viable cells were seeded in each 16 mm dish in serum-free medium MCDB 151 with a supplement (S) of insulin (5 μg/ml), transferrin (5 μg/ml), selenium (5 ng/ml) and hydrocortisone (5 μg/ml) (all from Sigma, Deisenhofen, Germany). […] This quantification was facilitated by the use of dishes which contained a grit on the bottom which is roughly 2 mm wide (from Sarstedt, Newton, N.C., USA). For data collection the entire surface area of four randomly selected dishes for each condition was screened. Furthermore, the number of cells per colony was determined in 75 randomly selected colonies for each condition. Furthermore, the total number of cells/dish was calculated in order to carry out an evaluation for artemin. In order to stimulate the cellular proliferation, GDNF (50 or 200 ng/ml) or artemin (250 ng/ml) was added to the medium. In order to estimate the rate of proliferation after 12 days (a time when neighbouring colonies started to grow into each other and, therefore, prevented numerical quantification) dishes were fixed in −20° C. methanol and stained with methylene blue.
All experiments examining the effect of GDNF on corneal proliferation were performed in triplicate with cells from different donors. The influence of growth factor on colony formation, colony size and cell number was studied using one-way analysis of variance. […] Student's t-test was employed to determine which differences were significant after analysis of variance.

[4] = tested on: primary human corneal stromal cells; test: proliferation of cultured stromal keratocytes (cell counting, Cell Titer 96 AQueous assay); format: cell-based; conditions: 20 or 100 ng/ml; serum-free medium; D6; p<0.005
Description: In order to investigate the effect of GDNF on the proliferation of cultured stromal keratocytes the cells were passaged from DMEM +10% FBS into DMEM +1% FBS or into DMEM without FBS at a density of 5×10^4 cells/60 mm dish. Some cultures received recombinant human GDNF at the above-mentioned concentrations. Proliferation was measured after 6 days by counting cells under the phase contrast microscope (50 fields at 100×magnification per condition) as well as trypsinized cells. Also a Cell Titer 96 AQueous One Solution proliferation assay (Promega) was performed according to the manufacturess description. For this calorimetric assay 500 or 1000 cells were grown for 6 days in 96-well-plates (Falcon). Upon addition to the culture well a titrazolium dye is bioreduced by cells into a colored formazan product and the absorbance is quantified at 490 nm. The quantity of the formazan product is proportional to the number of living cells in the well and can therefore serve to estimate proliferation.

[5] = target: T1, Ret (Homo sapiens, UniProt P07949); test: immuno-precipitation and western blot of tyrosine-phosphorylated Ret in cultured corneal epithelial cells; format: cell-based; conditions: GDNF 200 ng/ml vs serum-free control cultures
T1 construct: The level of phosphorylated Ret (approximately 150 kD) in cultured corneal epithelial cells (control) was low prior to addition of GDNF; endogenous in cells; host or cells: SV40-transformed human corneal epithelial cell line (Araki-Sasaki et al., 1995)
T1 sequence (P07949 29-1114): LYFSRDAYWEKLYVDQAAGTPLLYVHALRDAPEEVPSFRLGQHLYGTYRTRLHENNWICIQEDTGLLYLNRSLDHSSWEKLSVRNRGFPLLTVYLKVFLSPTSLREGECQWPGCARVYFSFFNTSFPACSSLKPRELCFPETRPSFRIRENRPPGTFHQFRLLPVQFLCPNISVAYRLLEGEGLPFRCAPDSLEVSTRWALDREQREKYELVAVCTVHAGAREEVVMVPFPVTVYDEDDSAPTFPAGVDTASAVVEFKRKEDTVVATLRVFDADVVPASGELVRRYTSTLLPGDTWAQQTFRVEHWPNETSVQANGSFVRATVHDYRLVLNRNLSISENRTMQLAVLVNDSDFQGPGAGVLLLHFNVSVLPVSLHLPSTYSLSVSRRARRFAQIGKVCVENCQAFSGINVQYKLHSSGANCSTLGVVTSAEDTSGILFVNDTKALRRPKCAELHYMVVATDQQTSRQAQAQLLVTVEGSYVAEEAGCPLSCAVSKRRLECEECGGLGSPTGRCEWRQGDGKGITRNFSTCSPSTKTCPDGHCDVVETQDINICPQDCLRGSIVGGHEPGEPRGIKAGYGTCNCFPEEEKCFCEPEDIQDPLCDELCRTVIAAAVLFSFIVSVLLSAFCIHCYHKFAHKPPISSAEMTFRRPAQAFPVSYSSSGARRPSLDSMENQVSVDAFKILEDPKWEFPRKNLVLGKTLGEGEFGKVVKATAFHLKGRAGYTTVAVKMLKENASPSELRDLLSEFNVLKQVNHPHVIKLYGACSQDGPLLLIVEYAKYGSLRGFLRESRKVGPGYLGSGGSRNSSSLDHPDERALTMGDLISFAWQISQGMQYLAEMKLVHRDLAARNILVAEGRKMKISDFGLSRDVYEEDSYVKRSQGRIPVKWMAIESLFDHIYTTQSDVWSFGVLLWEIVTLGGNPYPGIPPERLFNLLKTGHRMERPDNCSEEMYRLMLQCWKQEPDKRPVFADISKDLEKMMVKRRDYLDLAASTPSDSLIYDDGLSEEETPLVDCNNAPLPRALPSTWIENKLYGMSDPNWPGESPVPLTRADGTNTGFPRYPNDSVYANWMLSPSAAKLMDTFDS

[6] = rhGDNF 0.2 mg/ml eye drops, topical

B1: GDNF: recombinant human GDNF having the amino acid sequence of human wild-type GDNF (GenBank L19063, L15306) (protein)
chain: SPDKQMAVLPRRERNRQAAAANPENSRGKGRRGQRGKNRGCVLTAIHLNVTDLGLGYETKEELIFRYCSGSCDAAETTYDKILKNLSRNRRLVSDKVGQACCRPIAFDDDLSFLDDNLVYHILRKHSAKRCGCI
[1]; [6]
  start of wound healing: 2 days
  time to complete wound healing of the epithelium: 3 weeks
[1]; rhGDNF topical
  inflammation and subjective afflictions after healing of the epithelium: significant reduction
  thickness of the stroma: continuous increase
[2]
  gap in the cell monolayer filled: 30%±6.9
[3]; GDNF 50 ng (p<0,05) and 200 ng (p<0.0001), serum-free MCDB
  numbers of colonies per dish: increased significantly
[3]; GDNF 50 and 200 ng/ml, p<0.01
  clonal proliferation (number of cells within each colony): significantly stimulated
[4]
  proliferation of stromal keratocytes: significantly enhanced
[5]
  time to induction of tyrosine phosphorylation of Ret: ≤ 5 min
